{"source": "patent US9575076", "key": {"[1]": {"target": "Thyroid Stimulating Hormone (TSH) (UniProt P01215)", "experiment": "FRET quenching titration, BHQ-10 antibody and Alexa Fluor 488 antigen"}, "Luteinizing Hormone (LH) [2]": {"target": "Luteinizing Hormone (LH) (UniProt P01215)", "experiment": "FRET quenching titration, BHQ-10 antibody and Alexa Fluor 488 antigen"}, "[3]": {"target": "Chorionic Gonadotropin (CG) (UniProt P01215)", "experiment": "FRET quenching titration, BHQ-10 antibody and Alexa Fluor 488 antigen"}, "[4]": {"target": "Follicle Stimulating Hormone (FSH) (UniProt P01215)", "experiment": "FRET quenching titration, BHQ-10 antibody and Alexa Fluor 488 antigen"}, "[5]": {"target": "Thyroid Stimulating Hormone (TSH) (UniProt P01215)", "experiment": "FRET competition on Alexa488-labelled antigen; competitor BHQ-labelled 414B"}, "[6]": {"target": "Thyroid Stimulating Hormone (TSH) (UniProt P01215)", "experiment": "i-STAT sandwich cartridge with TSH; capture beads TSH Ab 544, detection conjugate T25C"}, "[7]": {"target": "Thyroid Stimulating Hormone (TSH) (UniProt P01215)", "experiment": "i-STAT sandwich cartridge with TSH; capture beads TSH Ab 544, detection conjugate ME130; also: test concentration or dose not given here"}, "[8]": {"target": "Follicle Stimulating Hormone (FSH) (UniProt P01215)", "experiment": "i-STAT sandwich cartridge, 0.4 mIU/L TSH plus FSH, signal gain over TSH alone; capture 94544, detection 414B"}, "[9]": {"target": "Thyroid Stimulating Hormone (TSH) (UniProt P01215)", "experiment": "i-STAT sandwich cartridge with TSH; capture beads TSH Ab 544, detection conjugate 414B; also: test concentration or dose not given here"}, "[10]": {"target": "Chorionic Gonadotropin (CG) (UniProt P01215)", "experiment": "i-STAT sandwich cartridge, 0.4 mIU/L TSH plus CG, signal gain over TSH alone; capture 94544, detection 414B"}, "Luteinizing Hormone (LH) [11]": {"target": "Luteinizing Hormone (LH) (UniProt P01215)", "experiment": "i-STAT sandwich cartridge, 0.4 mIU/L TSH plus LH, signal gain over TSH alone; capture 94544, detection 414B"}, "[12]": {"target": "Thyroid Stimulating Hormone (TSH) (UniProt P01215)", "experiment": "FRET competition on Alexa488-labelled antigen; competitor BHQ-labelled M4"}, "[13]": {"target": "Thyroid Stimulating Hormone (TSH) (UniProt P01215)", "experiment": "FRET competition on Alexa488-labelled antigen; competitor BHQ-labelled 5409"}, "[14]": {"target": "Thyroid Stimulating Hormone (TSH) (UniProt P01215)", "experiment": "FRET competition on Alexa488-labelled antigen; competitor BHQ-labelled TSH Ab 544"}, "[15]": {"target": "Thyroid Stimulating Hormone (TSH) (UniProt P01215)", "experiment": "i-STAT sandwich cartridge with TSH; capture beads TSH Ab 544, detection conjugate M4; also: test concentration or dose not given here"}, "[16]": {"target": "Thyroid Stimulating Hormone (TSH) (UniProt P01215)", "experiment": "FRET competition on Alexa488-labelled antigen; competitor BHQ-labelled ME130"}, "[17]": {"target": "Thyroid Stimulating Hormone (TSH) (UniProt P01215)", "experiment": "i-STAT sandwich cartridge with TSH; capture beads TSH Ab 544, detection conjugate 5409; also: test concentration or dose not given here"}, "[18]": {"target": "Thyroid Stimulating Hormone (TSH) (UniProt P01215)", "experiment": "FRET competition on Alexa488-labelled antigen; competitor BHQ-labelled T25C"}}, "data": [{"substance": "TSH Ab 544 (Abbott Diagnostics Division) (antibody)", "values": [{"measurement": "Kd", "setting": "[1]", "value": 1.31, "unit": "nM"}, {"measurement": "Kd", "setting": "Luteinizing Hormone (LH) [2]", "value": 1000, "unit": "nM"}, {"measurement": "Kd", "setting": "[3]", "value": 210, "unit": "nM"}, {"measurement": "Kd", "setting": "[4]", "value": 1000, "unit": "nM"}, {"measurement": "relative fluorescence", "setting": "[5]", "value": 0.89, "unit": "normalized"}, {"measurement": "electrochemical current", "setting": "[6]", "value": 22.4, "unit": "nA"}, {"measurement": "electrochemical current", "setting": "[7]", "value": 34.9, "unit": "nA"}, {"measurement": "FSH CR (%)", "setting": "[8]", "value": 7.15, "unit": "%"}, {"measurement": "electrochemical current", "setting": "[9]", "value": 25, "unit": "nA"}, {"measurement": "CG CR (%)", "setting": "[10]", "value": 117, "unit": "%"}, {"measurement": "LH CR (%)", "setting": "Luteinizing Hormone (LH) [11]", "value": 11.8, "unit": "%"}, {"measurement": "relative fluorescence", "setting": "[12]", "value": 0.92, "unit": "normalized"}, {"measurement": "relative fluorescence", "setting": "[13]", "value": 0.96, "unit": "normalized"}, {"measurement": "relative fluorescence", "setting": "[14]", "value": 1, "unit": "normalized"}, {"measurement": "electrochemical current", "setting": "[15]", "value": 0.11, "unit": "nA"}, {"measurement": "relative fluorescence", "setting": "[16]", "value": 0.72, "unit": "normalized"}, {"measurement": "electrochemical current", "setting": "[17]", "value": 7.98, "unit": "nA"}, {"measurement": "relative fluorescence", "setting": "[18]", "value": 0.71, "unit": "normalized"}]}]}
